According to US20090047282:

Legend:
[1] = tested on: human Shh-N (cysteine residue at the 24th position up to the glycine residue at the 197th position of human Shh), E. coli recombinant, histidine tag excised with enterokinase
[2] = tested on: Shh-(24-45), 22-mer peptide of amino acids 24 to 45 of human Shh, biotin at the C-terminal lysine
Chain of Shh-(24-45), 22-mer peptide of amino acids 24 to 45 of human Shh, biotin at the C-terminal lysine (chain, as listed by the source): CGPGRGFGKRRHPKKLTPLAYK

Substance: human HHAT (human hedgehog acyltransferase) with a C-terminal FLAG-Tag, crude enzyme solution from transfected HEK293 cells
- radioactivity of [14C] palmitic acid in the band of Shh-N after SDS-PAGE (HHAT activity) [1]: Only when the human HHAT crude enzyme solution and the Shh-N were reacted, a band having a radioactivity was recognized in the vicinity of the molecular weight of 21 kDa corresponding to the Shh-N

Substance: human HHAT expressed with the Bac-to-Bac baculovirus system (HHAT enzyme solution of Example 5)
- radioactivity of [3H] palmitic acid added to the substrate peptide against the peptide's concentration (reaction time 1 hour) [2]: the activity was increased depending on the concentration (FIG. 3)
- radioactivity of [3H] palmitic acid added to the substrate peptide against the reaction time (10 uM peptide) [2]: the activity was increased for 2 hours (FIG. 4)
